Assay results published in paper PMC5503811.

Legend:
ALDH7A1 G255D (human) = experiment: AUC
[1] = target: wild-type human aldehyde dehydrogenase 7A1 (human); experiment: AUC

Ka (ALDH7A1 G255D (human)) [M⁻¹] | stoichiometry N [1] | Substance
750000 | – | ALDH7A1 G255D (enzyme)
– | 4 | wild-type human aldehyde dehydrogenase 7A1 (enzyme)
